Data taken from US20220411504A1.

Biological target: Human CD3 epsilon (CD3ε) of the T cell receptor complex on cells (human) (UniProt P07766)
Experiment: flow cytometry on Jurkat cells, 10 nM antibody

Human CD3 epsilon (CD3ε) of the T cell receptor complex on cells (human), sequence (P07766 23-207 limits assumed, one chain of several): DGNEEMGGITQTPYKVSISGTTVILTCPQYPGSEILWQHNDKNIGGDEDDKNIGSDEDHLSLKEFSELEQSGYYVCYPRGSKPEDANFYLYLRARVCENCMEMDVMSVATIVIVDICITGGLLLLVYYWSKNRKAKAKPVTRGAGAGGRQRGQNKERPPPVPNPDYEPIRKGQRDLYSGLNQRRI

Substance UCHT1 (antibody) has an MFI (arbitrary units) of 89200.
